What was measured:
[1] = In vitro kinetic assay of purified HACS variants; substrate propionaldehyde; format: biochemical; conditions: for Km: read-out: Km, app
Protocol: The kinetic assay was performed with a coupled reaction providing formyl-CoA from formate catalyzed by CoA transferase CaAbfT using acetyl-CoA as a CoA donor.
In vitro kinetic assay was comprised of 100 mM KPi pH 6.9, 10 mM MgCl2, 0.15 mM TPP, 2 mM acetyl-CoA, 1 μM CaAbfT, 0.25 μM HACS variants, and 20 mM sodium formate. Reactions were incubated at room temperature for 3 min to convert formate to formyl-CoA, and then specific concentration of aldehyde (specifically acetaldehyde or propionaldehyde here) was added to the reaction. After incubating another 3 min, 1/20 of the reaction volume of 10 M NaOH solution was added to terminate the reactions. After 30 min hydrolysis, 1/20 of the reaction volume of 10 N H2SO4 was added to neutralize the pH. Samples were centrifuged at 20817×g for 15 minutes and the supernatant analyzed by GC-MS as described below.
For this analysis, 0.15 of the reaction volume of internal standard methyl succinate was added to the samples. The resulting sample was extracted into 4 mL ethyl acetate by vigorous vortexing for 20 min. The organic phase was separated and evaporated to dryness under a stream of nitrogen. The residue was dissolved in 30 μL pyridine and 30 μL N,O-Bis(trimethylsilyl)trifluoroacetamide (BSTFA) and incubated at 60° C. for 15 minutes. Compound identification and analysis was performed by GC-MS using an Agilent 7890B Series Custom Gas Chromatography system equipped with a 5977B Inert Plus Mass Selective Detector Turbo EI Bundle (for identification) and an Agilent HP-5-ms capillary column (0.25 mm internal diameter, 0.25 μm film thickness, 30 m length). Samples were analyzed by GC (1 μL injection with a 20:1 split ratio) using helium as the carrier gas at a flowrate of 1.5 mL/min and the following temperature profile: initial 90° C. for 3 min; ramp at 15° C./min to 170° C.; ramp at 20° C./min to 300° C. and hold for 8 min. The injector and detector temperature were 250° C. and 350° C., respectively.
As hypothesized from Example 3 (FIG. 22B), JGI15 had lower Km with lower kcat with respect to formaldehyde in comparison with JGI20 (Table 8). With longer chain aldehydes JGI15 and JGI20 has lower Km (sub millimolar) to acetaldehyde and propionaldehyde compared to JGI23 and JGI24, while also lower Kcat as well. Which indicates they have stronger affinity to the aldehyde and lower enzymatic activity. JGI23 and JGI24 are promising as they have better activity (higher Kcat) which have a good potential to work better in vivo by improve their affinity to substrates (lower Km). Similarly, AcHACL as lower Km with acetone while JGI15 as better Kcat (Table 8).

[2] = tested on: glycolate production from formaldehyde; assay: High throughput resting-cell screening of first round HACS variants co-expressed with LmACR; format: cell-based, E. coli; conditions: 5 mM formaldehyde, 3 hours
Description: We used glycolic acid (glycolate) productivity per cell density (uM glycolate/OD600) as indicator of HACS activity. Glycolate can be produced from formaldehyde as sole carbon source in the presence of active HACS variant and acyl-CoA reductase from Listeria monocytogenes (LmACR) (FIG. 20A). LmACR is shown to be capable of catalyzing oxidation reaction from formaldehyde to formyl-CoA (Chou, A., et al. Nat. Chem. Biol. 15:900-906 (2019)). HACS condenses formaldehyde and formyl-CoA to form glycolyl-CoA, which can then be hydrolyzed to glycolate via native thioesterase activities (FIG. 20A).
To prototype glycolate production pathway from formaldehyde in vivo, we constructed vectors overexpress various HACS candidates and LmACR, with both under control of the IPTG-inducible T7 promoter in pCDFDuet-1 and pETDuet-1, respectively (FIG. 20C). […]
Cells from the above pre-cultures were then centrifuged (4000 rpm, 22° C.), washed with the above minimal media without any carbon source, and resuspended with 1 mL of above minimal media containing indicated amounts of carbon source. […] After incubation at 30° C. for 3 hours, the cells were pelleted by centrifugation and the supernatant analyzed by HPLC or GC-MS as described below. […] The soluble cell lysates obtained from the supernatant were analyzed using SDS-PAGE. […]

[3] = tested on: 2HIB production from acetone and formate; assay: HACS screening with acetone and formate (2HIB production); format: cell-based, E. coli; conditions: 100 mM acetone and 20 mM formate, CaAbfT
Protocol: The HACS variants are tested using the high throughput screening platform as described in EXAMPLE 3 pathway 2 by co-feeding 100 mM acetone and 20 mM formate with formate activation enzyme CaAbfT (FIG. 37A).

Molecule | Kcat, app [1] [s⁻¹] | Km [1] [µM] | glycolate productivity and relative HACS expression compared with RuHACL [2] | performance in 2HIB production [3] | performance in 2HIB production ([3]; listed as JG115)
JGI15: HACS variant; GenBank HAK63664.1 (protein) MAKSEGKVNGATLMARALQQQGVQYMFGIVGFPVIPIAIAAQREGITYIGMRNEQSASYAAQAASYLTGRPQACLVVSGPGVVHALAGLANAQVNCWPMLLIGGASAIEQNGMGAFQEERQVLLASPLCKYAHQVERPERIPYYVEQAVRSALFGRPGAAYLDMPDDVILGEVEEAAVRPAATVGEPPRSLAPQENIEAALDALQSAKRPLVIVGKGMAWSRAENEVRQFIERTRLPFLATPMGKGVMPDDHPLSVGGARSHALQEADLVFLLGARFNWILHFGLPPRYSKDVRVIQLDLSAEEIGNNRQAEVALVGDGKAIVGQLNQALSSRQWFYPAETPWREAIAAKIAGNQAAVAPMIADNTSPMNYYRVYRDIAARLPRNAIIVGEGANTMDIGRTQMPNFEPRSRLDAGSYGTMGIGLGFAVAAAAVHPGRPVIAVQGDSAFGFSGMEFETAARYGMPIKVIILNNGGIGMGSPAPRDGQPGMPHALSHDARYERIAEAFGGAGFYVTDSAELGPALDAAMAFKGPAIVNIKIAATADRKPQQFNWHG | 11.08 ± 0.02 | 200 ± 40 | better glycolate productivity and relative HACS expression than the starting reference | best performance | better performance than other HACLs
JGI20: HACS variant; GenBank PWB41796.1 (protein) MGQITGAQIVARALKQQGVEYMFGIVGIPVIPIAMFAQREGIKFYGFRNEQSASYAAAAVGYLTGRPGVCLGVSGPGMIHGVAGMANAWSNCWPMILIGGANDSYQNGQGAFQEAPQIEAARPFAKYCARPDSLARLPFYVEQAVRTSIYGRPGAVYLDLPGDIITGAMEEEDVHFPPRCPDAPRMMAPQESIDAAMAALKSAERPLVIVGKGAAYSRAENEVREFLETTQLPYLASPMGKGVMPDDHPLSIAPARSAALLGADVILLMGARLNWMMHFGHPPRFDPKVRVIQMDISAEEIGTNVPTEVALVGDAKAITTQLNASLKQQPWQYPSETTWWTGLRKKIDENGATVAEMMADESVPMSYYRVYREIRDLIPNDAIIQNEGASTMDIGRTLMPNFLPRHRLDAGSFGTMGVGLGQAIAAAAVHPDKHVFCIEGDSAFGFSGMEVETAARYGMKNITFIIINNNGIGGGPDTLDPTRVPPSAYTPNAHYEKMAEIYGGKGYFVTEPSQLRPALEEAIKADKPAIVNIMISATSQRKPQQFAWLTR | 17.35 ± 1.97 | 420 ± 60 | better glycolate productivity and relative HACS expression than the starting reference | better performance than other HACLs | 

From patent publication US20260078416A1, “ORTHOGONAL METABOLIC FRAMEWORK FOR ONE-CARBON UTILIZATION” (Mojia Biotech Pte. Ltd., priority 2021, published 2026)
